Data taken from patent US20250376517A1 (AKESO BIOPHARMA, published 2025).

Assays:
[1] = biological target: T1, human Claudin18.2 (CLDN18.2) on the surface of CHO-K1-CLDN18.2 cells (human, UniProt P56856-2 1-261); assay: flow cytometry (FACS) on CHO-K1-CLDN18.2 cells
T1 construct: whole, on cells; Membrane protein overexpressed on CHO-K1 cells; also called hCLDN18.2; antigen on the surface of CHO-K1-CLDN18.2 cell

[2] = biological target: T1, human Claudin18.2 (CLDN18.2) on the …; assay: cell ELISA on CHO-K1-CLDN18.2 cells
Experimental: (§1) CHO-K1-CLDN18.2 cells (Chinese hamster ovary cells CHO-K1 overexpressing CLDN18.2, CHO-K1 purchased from Cell Resource Center, Institute of Basic Medical Sciences, Chinese Academy of Medical Sciences, Cat. No.: 3111C0001CCC000004) were plated on a cell plate (Corning, 3599) at 2×10⁴ cells/well and cultured overnight at 5% CO₂ and 37° C., and then the cell plate in which the cells were incubated was washed once with PBST and blocked for 2 h at 37° C. using PBST containing 1% BSA as a blocking solution. After blocking, the plate was washed 3 times with PBST. The ELISA plate containing the test antibodies was incubated at 37° C. for 30 min and then washed 3 times with PBST. […] Then, the plate was incubated at 37° C. for 30 min. After incubation, the plate was washed 4 times with PBST, TMB (Neogen, 308177) was added for color developing in the dark for 5 min, and then a stop solution was added to terminate the chromogenic reaction. The ELISA plate was put into a microplate reader immediately, and the OD value of each well in the ELISA plate was read at 450 nm. The data were analyzed and processed by SoftMax Pro 6.2.1.

[3] = biological target: T1, human Claudin18.2 (CLDN18.2) on the …; assay: cell ELISA on CHO-K1-CLDN18.2 cells; remark: listed apart in the source
Experimental: as §1

[4] = biological target: T1, human Claudin18.2 (CLDN18.2) on the …; assay: cell ELISA on CHO-K1-CLDN18.2 cells; antibody 0.012 µg/mL
Experimental: as §1

[5] = biological target: T1, human Claudin18.2 (CLDN18.2) on the …; assay: cell ELISA on CHO-K1-CLDN18.2 cells; antibody 0 µg/mL (background, no antibody)
Experimental: as §1

[6] = biological target: T1, human Claudin18.2 (CLDN18.2) on the …; assay: cell ELISA on CHO-K1-CLDN18.2 cells; remark: listed apart in the source
Experimental: as §1

[7] = biological target: T1, human Claudin18.2 (CLDN18.2) on the …; assay: cell ELISA on CHO-K1-CLDN18.2 cells; antibody 0.111 µg/mL
Experimental: as §1

[8] = biological target: T1, human Claudin18.2 (CLDN18.2) on the …; assay: cell ELISA on CHO-K1-CLDN18.2 cells; antibody 1.000 µg/mL
Experimental: as §1

[9] = biological target: T1, human Claudin18.2 (CLDN18.2) on the …; assay: flow cytometry (FACS) on CHO-K1-CLDN18.2 cells; remark: listed apart in the source
Experimental: CHO-K1-CLDN18.2 cells in logarithmic growth phase were collected and transferred to a 1.5 mL EP tube at 3×10⁵ cells/well, and then 1% PBSA was added. The mixture was centrifuged at 1000× g for 5 min, followed by removal of the supernatant. […] 1000 μL of 1% PBSA was added, and the mixture was centrifuged at 1000×g for 5 min, followed by removal of the supernatant and washing twice with 1% PBSA. […] The mixture was resuspended and well mixed, and incubated on ice for 40 min in the dark. 1000 μL of 1% PBSA was added, and the mixture was centrifuged at 1000×g for 5 min, followed by removal of the supernatant and washing twice with 1% PBSA. 200 μL of 1% PBSA was added to resuspend the cell pellets, and the mixture was transferred to a flow cytometry tube for FACSCalibur assay.

[10] = biological target: T1, human Claudin18.2 (CLDN18.2) on the …; assay: cell ELISA on CHO-K1-CLDN18.2 cells; antibody 0.333 µg/mL
Experimental: as §1

[11] = biological target: T1, human Claudin18.2 (CLDN18.2) on the …; assay: cell ELISA on CHO-K1-CLDN18.2 cells; antibody 3 µg/mL
Experimental: as §1

[12] = biological target: T1, human Claudin18.2 (CLDN18.2) on the …; assay: cell ELISA on CHO-K1-CLDN18.2 cells; antibody 0.037 µg/mL
Experimental: as §1

[13] = biological target: T1, human Claudin18.2 (CLDN18.2) on the …; assay: cell ELISA on CHO-K1-CLDN18.2 cells; antibody 0.004 µg/mL
Experimental: as §1

B1: humanized anti-human CLDN18.2 antibody 8C5.1H2L2 (antibody, human IgG1, kappa, V domains shown)
VH: EVQLVESGGGLVKPGGSLRLSCAASGFTFSNSAVSWVRQAPGKGLEWVSTITSGVSYTYYADSVKGRFTISRDNAKNSLYLQMNSLRAEDTAVYYCTRQFKGNALDYWGQGTSVTVSS
VL: DIVMTQSPSSLSVSPGERVTISCKSSQSLLNSGNQKNYLTWYQQKPGQPPKLLIYWASTRESGVPDRFSGSGSGTDFTLTISSFQAEDVAVYYCQNDYFYPLTFGAGTKLELKR
[1]
  EC50: 0.234 µg/mL
[2]
  EC50: 0.094 nM

B2: humanized anti-human CLDN18.2 antibody 8C5.1H1L1 (antibody, human IgG1, kappa, V domains shown)
VH: EVQLVESGGGLVKPGGSLRLSCAASGFTFSNSAVSWVRQAPGKRLEWVATITSGVSYTYYLDSVRGRFTISRDNAKNSLYLQMNSLRAEDTAVYYCTRQFKGNALDYWGQGTSVTVSS
VL: DIVMTQSPSSLSVSPGERVTMSCKSSQSLLNSGNQKNYLTWYQQKPGQPPKLLIYWASTRESGVPDRFSGSGSGTDFTLTINSFQAEDVAVYYCQNDYFYPLTFGAGTKLELKR
[1]
  EC50: 0.216 µg/mL
[2]
  EC50: 0.054 nM

B3: humanized anti-human CLDN18.2 antibody 8C5.1H1L2 (antibody, human IgG1, kappa, V domains shown)
VH: EVQLVESGGGLVKPGGSLRLSCAASGFTFSNSAVSWVRQAPGKRLEWVATITSGVSYTYYLDSVRGRFTISRDNAKNSLYLQMNSLRAEDTAVYYCTRQFKGNALDYWGQGTSVTVSS
VL: DIVMTQSPSSLSVSPGERVTISCKSSQSLLNSGNQKNYLTWYQQKPGQPPKLLIYWASTRESGVPDRFSGSGSGTDFTLTISSFQAEDVAVYYCQNDYFYPLTFGAGTKLELKR
[1]
  EC50: 0.242 µg/mL
[2]
  EC50: 0.108 nM

B4: humanized anti-human CLDN18.2 antibody 8C5.1H2L1 (antibody, human IgG1, kappa, V domains shown)
VH: EVQLVESGGGLVKPGGSLRLSCAASGFTFSNSAVSWVRQAPGKGLEWVSTITSGVSYTYYADSVKGRFTISRDNAKNSLYLQMNSLRAEDTAVYYCTRQFKGNALDYWGQGTSVTVSS
VL: DIVMTQSPSSLSVSPGERVTMSCKSSQSLLNSGNQKNYLTWYQQKPGQPPKLLIYWASTRESGVPDRFSGSGSGTDFTLTINSFQAEDVAVYYCQNDYFYPLTFGAGTKLELKR
[1]
  EC50: 0.267 µg/mL
[2]
  EC50: 0.091 nM

B5: humanized anti-human CLDN18.2 antibody 8C5.1H2L3 (antibody, human IgG1, kappa, V domains shown)
VH: EVQLVESGGGLVKPGGSLRLSCAASGFTFSNSAVSWVRQAPGKGLEWVSTITSGVSYTYYADSVKGRFTISRDNAKNSLYLQMNSLRAEDTAVYYCTRQFKGNALDYWGQGTSVTVSS
VL: DIVMTQSPSSLSVSPGERVTISCKSSQSLLNSGNQKNYLAWYQQKPGQPPKLLIYWASTRESGVPDRFSGSGSGTDFTLTISSLQAEDVAVYYCQNDYFYPLTFGAGTKLELKR
[1]
  EC50: 0.243 µg/mL
[3]
  EC50: 0.081 nM

B6: humanized anti-human CLDN18.2 antibody 8C5.1H3L2 (antibody, human IgG1, kappa, V domains shown)
VH: EVQLVESGGGLVKPGGSLRLSCAASGFTFSNSAVSWVRQAPGKGLEWVSSITSGVSYTYYADSVKGRFTISRDNAKNSLYLQMNSLRAEDTAVYYCTRQFKGNALDYWGQGTSVTVSS
VL: DIVMTQSPSSLSVSPGERVTISCKSSQSLLNSGNQKNYLTWYQQKPGQPPKLLIYWASTRESGVPDRFSGSGSGTDFTLTISSFQAEDVAVYYCQNDYFYPLTFGAGTKLELKR
[1]
  EC50: 0.213 µg/mL
[3]
  EC50: 0.103 nM

B7: humanized anti-human CLDN18.2 antibody 8C5.1H3L3 (antibody, human IgG1, kappa, V domains shown)
VH: EVQLVESGGGLVKPGGSLRLSCAASGFTFSNSAVSWVRQAPGKGLEWVSSITSGVSYTYYADSVKGRFTISRDNAKNSLYLQMNSLRAEDTAVYYCTRQFKGNALDYWGQGTSVTVSS
VL: DIVMTQSPSSLSVSPGERVTISCKSSQSLLNSGNQKNYLAWYQQKPGQPPKLLIYWASTRESGVPDRFSGSGSGTDFTLTISSLQAEDVAVYYCQNDYFYPLTFGAGTKLELKR
[1]
  EC50: 0.281 µg/mL

B8: anti-CLDN18.2 antibody 8C5.1 (antibody, V domains shown)
VH: EVQLVESGGGLVKPGGSLKLSCAASGFTFSNSAVSWVRQTPEKRLEWVATITSGVSYTYYLDSVRGRFTISRDNAKNTLYLQMSSLRSEDTAMYYCTRQFKGNALDYWGQGTSVTVSS
VL: DIVMTQSPSSLTVTAGEKVTMSCKSSQSLLNSGNQKNYLTWYQQKPGQPPKLLIYWASTRESGVPDRFTGSGSGTDFTLTINNFQAEDLAVYYCQNDYFYPLTFGAGTKLELK
notes: Murine monoclonal antibody purified from hybridoma LT020 supernatant on protein A; also called monoclonal antibody secreted by hybridoma cell line LT020
[4]
  OD (450 nm): 0.697 OD
[5]
  OD (450 nm): 0.086 OD
[6]
  EC50: 0.153 nM
[7]
  OD (450 nm): 1.42 OD
[8]
  OD (450 nm): 1.79 OD
[9]
  EC50: 0.214 µg/mL
[10]
  OD (450 nm): 1.63 OD
[11]
  OD (450 nm): 1.61 OD
[12]
  OD (450 nm): 1.07 OD
[13]
  OD (450 nm): 0.344 OD

B9: positive control antibody IMAB362 (antibody, human IgG1, kappa, V domains shown)
VH: QVQLQQPGAELVRPGASVKLSCKASGYTFTSYWINWVKQRPGQGLEWIGNIYPSDSYTNYNQKFKDKATLTVDKSSSTAYMQLSSPTSEDSAVYYCTRSWRGNSFDYWGQGTTLTVSS
VL: DIVMTQSPSSLTVTAGEKVTMSCKSSQSLLNSGNQKNYLTWYQQKPGQPPKLLIYWASTRESGVPDRFTGSGSGTDFTLTISSVQAEDLAVYYCQNDYSYPFTFGSGTKLEIKR
notes: Human-murine chimeric antibody; produced by Akeso Biopharma Inc; also called Claudiximab; zolbetuximab
[1]
  EC50: 0.358 µg/mL
[2]
  EC50: 0.153 nM
[6]
  EC50: 0.201 nM
[9]
  EC50: 0.687 µg/mL
[3]
  EC50: 0.182 nM
